{"source": "patent US20250269058A1", "about": "“GENE THERAPY FOR TREATING NEURODEGENERATIVE DISEASES” (ABRAIN, priority 2021, published 2025)", "key": {"[1]": {"test": "ThT assay of autoaggregation of Aβ42 WT or variant peptides", "assay_type": "physicochemical", "details": "10 μM peptide in PBS, 50 μM ThT, 37° C.", "protocol": "HFIP was evaporated overnight in a fume hood and then transferred to SpeedVac for 1 hour to remove any remaining traces of HFIP, Tubes containing the peptide film were kept over desiccant at −20° C. until used. Immediately prior to experimental use, lyophilized peptides were dissolved in 0.1% NH4OH to a final concentration of 100 μM and sonicated for 10 minutes in a bath sonicator.\nThT fluorescence was measured using a Biotek Synergy H1 reader at an excitation wavelength of 440 nm and emission wavelength of 485 nm. Reactions were incubated at 37° C. and then shaken for 5 seconds every 10 minutes prior to reading the fluorescence."}, "human Tau 40 WT": {"target": "T1, human Tau 40 WT (Homo sapiens, UniProt P10636)", "T1 construct": "His tag (inferred from Ni-NTA purification and pQE80 vector); made in house; host or cells: E. coli BL21-DE3", "T1 sequence (P10636 1-441 isoform P10636-8)": "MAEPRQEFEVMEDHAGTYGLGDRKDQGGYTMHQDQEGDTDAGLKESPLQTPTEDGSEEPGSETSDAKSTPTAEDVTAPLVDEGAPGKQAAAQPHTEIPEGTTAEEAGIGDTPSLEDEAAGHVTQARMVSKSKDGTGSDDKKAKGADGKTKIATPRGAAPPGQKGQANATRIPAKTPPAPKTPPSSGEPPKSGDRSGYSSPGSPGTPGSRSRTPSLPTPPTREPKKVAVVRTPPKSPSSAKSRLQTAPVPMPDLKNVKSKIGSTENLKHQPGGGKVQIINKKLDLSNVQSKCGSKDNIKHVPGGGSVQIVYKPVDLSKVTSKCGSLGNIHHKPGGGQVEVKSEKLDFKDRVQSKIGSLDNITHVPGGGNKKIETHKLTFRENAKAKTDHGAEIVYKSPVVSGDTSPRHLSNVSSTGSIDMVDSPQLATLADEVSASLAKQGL", "test": "ThT assay, inhibition of human Tau 40 WT autoaggregation by Tau inhibitor", "assay_type": "biochemical", "details": "15 μM Tau protein and 30 μM inhibitor (1:2)", "protocol": "(§1) All inhibitor peptides were purchased from Biomatik. Dissolution was performed at a working concentration of 1.2 mM in deionized water, with a minimum purity of 95% or higher. Human Tau 40 WT was expressed by the pQE80 vector in BL21-DE3 E. coli cells grown to OD600=0.8 in LB medium. Cells were induced with 1 mM IPTG for 3 hours at 37° C. and further incubated for 4 hours, and then cultured E. coli cells were harvested by centrifugation at 5,000 rpm for 20 minutes. The obtained E. coli was resuspended in a dissolution buffer (50 mM NaH2PO4, NaCl 250 mM, 10 mM imidazole pH 8.0) and then dissolved by sonication. Cell lysates were purified by centrifugation at 15,000 rpm for 15 minutes, and 1 ml of 50% Ni-NTA slurry was added to 4 ml of the supernatant and shaken at 4° C. for 60 minutes (200 rpm on a rotator) to mix gently. […]\n(§2) Autoaggregation of human Tau 40 WT or Tau inhibitor was tested using 15 μM of human Tau 40 WT protein or 30 μM of inhibitor (SEQ ID NOs: 22 or 32), 8 μM heparin, and 50 μM ThT. ThT fluorescence was measured using a Biotek Synergy H1 reader at an excitation wavelength of 440 nm and emission wavelength of 485 nm. The reactions were incubated at 37° C., and measured every 15 minutes for 70 hours with orbital vibration of 425 cpm continuously. […]"}, "[2]": {"test": "ThT assay of autoaggregation of human Tau 40 WT or Tau inhibitor", "assay_type": "physicochemical", "protocol": "as §1, §2"}}, "data": [{"substance": "Aβ42 WT: wild-type Aβ42 peptide, synthetic, purchased from Biomatik", "values": [{"measurement": "autoaggregation in ThT assay", "setting": "[1]", "result": "generated aggregation"}]}, {"substance": "MDVQMINKKLK (Tau inhibitor) [SEQ ID NO: 22]", "values": [{"measurement": "inhibition of Tau WT aggregation (competition assay)", "setting": "human Tau 40 WT", "result": "completely attenuated the aggregation of Tau WT"}]}, {"substance": "TVIVITLVMLKDVQMINKKLK (Tau inhibitor) [SEQ ID NO: 32]", "values": [{"measurement": "inhibition of Tau WT aggregation (competition assay)", "setting": "human Tau 40 WT", "result": "completely attenuated the aggregation of Tau WT"}]}, {"substance": "Tau WT: Human Tau 40 WT protein expressed by the pQE80 vector in E. coli", "values": [{"measurement": "time to peak of ThT binding", "setting": "[2]; 1 nM of seed added to Tau WT", "result": "≤ 20", "unit": "h"}, {"measurement": "time to peak of ThT binding", "setting": "[2]; 15 μM human Tau 40 WT, 8 μM heparin, 50 μM ThT", "result": "≤ 70", "unit": "h"}]}]}
